Laboratory results reported in patent US20200048654A1.

Target: rice XA21 receptor kinase (rice)
Test: cell-based or functional assay

RaxX21-sY (peptide) was tested. Which EC50 of total ROS production over 3 h in Ubi::XA21 rice leaves did it give?
The EC50 of total ROS production over 3 h in Ubi::XA21 rice leaves was 20 nM.

With RaxX24-sY (peptide) as the substance, how does the EC50 of total ROS production over 3 h in Ubi::XA21 rice leaves read?
The EC50 of total ROS production over 3 h in Ubi::XA21 rice leaves was 30 nM.

For RaxX39-sY (peptide), which EC50 of total ROS production over 3 h in Ubi::XA21 rice leaves is on record?
The EC50 of total ROS production over 3 h in Ubi::XA21 rice leaves was 70 nM.

“RaxX60-sY (full-length sulfated recombinant RaxX-His from Xoo PXO99) (ligand)” was tested. Which EC50 of total ROS production over 3 h in Ubi::XA21 rice leaves did it give?
The EC50 of total ROS production over 3 h in Ubi::XA21 rice leaves was 100 nM.
